{
  "source": "the supplement of paper PMC9170038",
  "test_system": "MS2 coat protein",
  "experiment": "apparent KD of MS2 coat protein; designed switch direction (-1 OFF switch, 1 ON switch): -1; higher = weaker reporter binding",
  "conditions": "Eterna round: R98",
  "description": "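RNA-MaP: designed FMN/MS2 RNA switches (84 nt design region) are transcribed on-chip within common flanks and titrated with SNAP-549-labelled MS2 coat protein (about 1-3000 nM) in 100 mM Tris pH 7.5, 80 mM KCl, 4 mM MgCl2, without or with 200 uM FMN. Median apparent KD per design; activation ratio = KD,OFF / KD,ON.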",
  "data": [
    {"sequence": "UAUAUAAUUAAGAGCUGGAAAAUCACAUGAGGAUCACCCAUGUAGGAUAUCAGCACGAUAAGUGCUGAGAAGGACUACCAGCUC [Denovo 79]", "values": [
      {"measurement": "apparent KD of MS2 coat protein", "setting": "input ligand: FMN 200 uM", "value": 15.8, "unit": "nM"},
      {"measurement": "apparent KD of MS2 coat protein", "setting": "input ligand: none", "value": 20, "unit": "nM"}
    ]},
    {"sequence": "UCAUACAUGACAUGACAUGACAUGAGGAUCACCCAUGUUUACAAGGAUAUGUUGAUGAAACAUCAACAGAAGGUGUAAUGGACU [xclu_NG3_cac7]", "values": [
      {"measurement": "apparent KD of MS2 coat protein", "setting": "input ligand: FMN 200 uM", "value": 232, "unit": "nM"},
      {"measurement": "apparent KD of MS2 coat protein", "setting": "input ligand: none", "value": 136, "unit": "nM"}
    ]},
    {"sequence": "UCGAACGGAAACAAAGUCGAUAGACAUGAGGAUCACCCAUGUCAGGAUAUGCCUACUAAAAGUAGGCAGAAGGGACGCGUUCGA [Contusion 7 - Jieux - Exclusion NG 3]", "values": [
      {"measurement": "apparent KD of MS2 coat protein", "setting": "input ligand: FMN 200 uM", "value": 18, "unit": "nM"},
      {"measurement": "apparent KD of MS2 coat protein", "setting": "input ligand: none", "value": 20.8, "unit": "nM"}
    ]}
  ]
}
